Measurements from patent publication US20170247434A1 (DEUTSCHES KREBSFORSCHUNGSZENTRUM, published 2017).

Experiments:
[1] = biological target: T1, Norovirus GII.10 Vietnam026 virus-like particles (VLPs) (Norovirus GII.10 Vietnam026); test: direct ELISA; plates coated with 2 µg/ml VLPs; His-tagged nanobody serially diluted from ˜10 µM; anti-His HRP; detection limit OD 0.15
T1 construct: also called GII.10 VLPs; GII.10 norovirus virus-like particles
T1 chain: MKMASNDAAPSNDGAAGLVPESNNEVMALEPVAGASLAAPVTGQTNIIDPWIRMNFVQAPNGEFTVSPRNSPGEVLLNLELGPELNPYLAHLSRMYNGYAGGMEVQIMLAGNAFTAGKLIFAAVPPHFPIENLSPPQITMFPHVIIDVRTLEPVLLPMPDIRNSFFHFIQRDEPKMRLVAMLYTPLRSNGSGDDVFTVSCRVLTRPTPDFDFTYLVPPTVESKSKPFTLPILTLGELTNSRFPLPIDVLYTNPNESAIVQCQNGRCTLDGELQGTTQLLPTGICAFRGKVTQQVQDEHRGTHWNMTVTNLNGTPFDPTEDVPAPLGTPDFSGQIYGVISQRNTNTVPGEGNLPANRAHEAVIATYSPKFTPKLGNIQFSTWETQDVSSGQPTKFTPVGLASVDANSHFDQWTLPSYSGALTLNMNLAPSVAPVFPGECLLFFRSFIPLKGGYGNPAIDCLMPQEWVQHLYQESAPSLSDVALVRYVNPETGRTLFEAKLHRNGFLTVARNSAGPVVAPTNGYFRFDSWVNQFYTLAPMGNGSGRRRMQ

[2] = biological target: T2, P domain of norovirus GII.10 (Vietnam026) (Norovirus GII.10 Vietnam026); test: direct ELISA; plates coated with 7 µg/ml GII.10 P domain; His-tagged nanobody serially diluted from ˜10 µM; anti-His HRP
T2 construct: domain: P domain; also called GII.10 P domain; GII.10 P domains

[3] = biological target: T1, Norovirus GII.10 Vietnam026 virus-like …
[4] = biological target: T3, Norovirus GII.4 NSW-2012 virus-like particles (VLPs) (Norovirus GII.4 NSW-2012, UniProt P54635 1-538)
T3 chain: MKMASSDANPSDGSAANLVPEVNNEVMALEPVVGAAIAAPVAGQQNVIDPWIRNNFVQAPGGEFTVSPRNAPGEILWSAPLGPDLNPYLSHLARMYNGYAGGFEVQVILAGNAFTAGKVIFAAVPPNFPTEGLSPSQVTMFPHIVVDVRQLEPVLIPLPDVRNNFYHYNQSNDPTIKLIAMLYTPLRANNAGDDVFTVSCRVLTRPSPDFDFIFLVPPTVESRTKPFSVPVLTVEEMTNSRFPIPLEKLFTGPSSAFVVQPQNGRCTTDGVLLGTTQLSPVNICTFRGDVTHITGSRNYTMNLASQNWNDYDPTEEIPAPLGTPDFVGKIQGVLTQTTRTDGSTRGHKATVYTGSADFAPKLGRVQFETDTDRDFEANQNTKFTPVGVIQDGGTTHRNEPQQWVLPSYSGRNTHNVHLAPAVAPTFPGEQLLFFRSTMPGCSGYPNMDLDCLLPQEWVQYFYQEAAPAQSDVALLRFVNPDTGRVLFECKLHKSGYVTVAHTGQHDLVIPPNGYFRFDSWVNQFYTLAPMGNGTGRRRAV

[5] = biological target: T4, Norovirus GII.12 Hiro virus-like particles (VLPs) (Norovirus GII.12 Hiro); test: direct ELISA; plates coated with 2 µg/ml VLPs; His-tagged nanobody serially diluted from ˜10 µM; anti-His HRP
T4 construct: also called GII.12 VLPs

[6] = biological target: T3, Norovirus GII.4 NSW-2012 virus-like …; test: as above
[7] = biological target: T5, Norovirus GI.1 Norwalk virus virus-like particles (VLPs) (Norovirus GI.1 Norwalk virus, UniProt Q83884 1-530); test: direct ELISA; plates coated with VLPs; His-tagged nanobody serially diluted from ˜10 µM; anti-His HRP
T5 construct: also called GI.1 VLPs; the member of genogroup I included in this study
T5 sequence: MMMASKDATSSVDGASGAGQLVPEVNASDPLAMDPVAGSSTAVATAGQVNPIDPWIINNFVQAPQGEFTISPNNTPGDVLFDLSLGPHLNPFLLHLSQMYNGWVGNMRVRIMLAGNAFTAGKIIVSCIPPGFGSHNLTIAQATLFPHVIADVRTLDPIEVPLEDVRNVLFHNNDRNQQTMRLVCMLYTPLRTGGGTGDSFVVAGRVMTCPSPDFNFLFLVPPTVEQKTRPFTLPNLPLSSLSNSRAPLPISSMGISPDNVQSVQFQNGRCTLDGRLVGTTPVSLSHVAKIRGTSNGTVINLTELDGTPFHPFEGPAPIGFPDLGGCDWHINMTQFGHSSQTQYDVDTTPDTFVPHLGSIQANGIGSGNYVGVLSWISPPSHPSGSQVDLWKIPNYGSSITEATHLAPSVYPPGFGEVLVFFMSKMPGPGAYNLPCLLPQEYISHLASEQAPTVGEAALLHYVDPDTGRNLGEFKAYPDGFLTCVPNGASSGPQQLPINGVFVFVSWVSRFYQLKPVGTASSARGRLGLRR

B1: Nano-85 (VHH)
VHH: DVQLVESGGGLVQPGGSLRLSCAASGSIFSIYAMGWYRQAPGKQRELVASISSGGGTNYADSVKGRFTISGDNAKNTVYLQMNSLKPEDTAVYYCKREDYSAYAPPSGSRGRGTQVTVSS
notes: also called the Nanobody; single-domain antibody (VHH) of the invention
B1 was tested, and the “dilution at which VLPs were detected” value [1] was 64000 fold dilution, the “dilution at which P domains were detected” value [2] was 17800 fold dilution and the IC50 [3] was < 10 µg/mL. The IC50 [4] was < 10 µg/mL, the “dilution at which VLPs were detected” value [5] was 32000 fold dilution and the “dilution at which VLPs were detected” value [6] was 32000 fold dilution. The “dilution at which VLPs were detected” value [7] was 4000 fold dilution.
